Assay results reported in patent publication US20130266567A1 (published 2013).
Where “and” joins values, the source holds several entries; their conditions need not be identical. Equal entries are not always repeated. Values belong to the binder of their own block, whether it stands above or below them.

How the values were obtained:
Human serum albumin [1] = molecular target: T1, Human serum albumin (human, UniProt P02768 25-609); test: SPR, BIAcore T100, equilibrium KD
T1 construct: coupled to CM5 BIAcore chip; also called human SA; HSA
Protocol: (§1) Cross-reactivity of the AlbudAbs™ (ie, anti-serum albumin dAbs) was determined against human, Cynomolgus monkey (cyno), rat and mouse serum albumin using surface plasmon resonance (SPR). In this case, Biacore™ was used. Biacore™ 2000/3000 was used for the supernatant screens and determination of binding kinetic all of dAbs described herein. Biacore™ T100 was used for the determination of cross-reactivity of lead Vk and VH Albudabs to a wider range of species' SAs (12 in total). Protein samples were run on the T100 BIAcore as described for the BIAcore2000/3000 experiments. […] Where appropriate, a kinetic Langmuir 1:1 fitting model was used.

Rat serum albumin [2] = molecular target: T2, Rat serum albumin (rat, UniProt P02770 25-608); test: SPR, BIAcore T100, equilibrium KD
T2 construct: coupled to CM5 BIAcore chip; also called rat SA; RSA
Protocol: as §1

Cynomolgus serum albumin [3] = molecular target: T3, Cynomolgus serum albumin (Cynomolgus monkey, UniProt A2V9Z4 25-608); test: SPR, BIAcore T100, equilibrium KD
T3 construct: mature; purified native protein; coupled to CM5 BIAcore chip; also called cyno SA; CSA
Protocol: as §1

Dog serum albumin = Dog serum albumin (dog, UniProt P49822 25-608); test: SPR, BIAcore T100, equilibrium KD
Protocol: as §1

Mouse serum albumin [4] = molecular target: T4, Mouse serum albumin (mouse, UniProt P07724 25-608); test: SPR, BIAcore T100, equilibrium KD
T4 construct: mature; bought purified protein; coupled to CM5 BIAcore chip; also called mouse SA; MSA
Protocol: as §1

Marmoset serum albumin = Marmoset serum albumin (marmoset); test: SPR, BIAcore T100, equilibrium KD
Protocol: as §1

Mouse serum albumin [5] = molecular target: T4, Mouse serum albumin; test: SPR, BIAcore 3000, serum albumin coupled to CM5 chip;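 also: Cross-reactivity of anti-serum albumin domain antibodies measured against human, cynomolgus monkey, rat and mouse serum albumin, binding kinetics giving Kd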
Protocol: as §1

Rabbit serum albumin = Rabbit serum albumin (rabbit, UniProt P49065 25-608); test: SPR, BIAcore T100, equilibrium KD
Protocol: as §1

Sheep serum albumin = Sheep serum albumin (sheep, UniProt P14639 25-607); test: SPR, BIAcore T100, equilibrium KD
Protocol: as §1

Ferret serum albumin = Ferret serum albumin (ferret); test: SPR, BIAcore T100, equilibrium KD
Protocol: as §1

Pig serum albumin = Pig serum albumin (pig, UniProt P08835 25-607); test: SPR, BIAcore T100, equilibrium KD
Protocol: as §1

Mini Pig serum albumin = Mini Pig serum albumin (mini pig); test: SPR, BIAcore T100, equilibrium KD
Protocol: as §1

Human serum albumin [6] = molecular target: T1, Human serum albumin; test: SPR, BIAcore 3000, serum albumin coupled to CM5 chip;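 also: Cross-reactivity of anti-serum albumin domain antibodies measured against human, cynomolgus monkey, rat and mouse serum albumin, binding kinetics giving Kd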
Protocol: as §1

Rat serum albumin [7] = molecular target: T2, Rat serum albumin; test: as above
Protocol: as §1

Cynomolgus serum albumin [8] = molecular target: T3, Cynomolgus serum albumin; test: as above
Protocol: as §1

Human serum albumin [9] = molecular target: T1, Human serum albumin; test: SPR, BIAcore 3000, serum albumin coupled to CM5 chip; second of two independent measurements; marked with an unexplained caret
Protocol: as §1

Guinea Pig serum albumin = Guinea Pig serum albumin (guinea pig); test: SPR, BIAcore T100, equilibrium KD
Protocol: as §1

Human serum albumin [10] = molecular target: T1, Human serum albumin; test: SPR, BIAcore 3000, serum albumin coupled to CM5 chip; first of two independent measurements on different protein batches
Protocol: as §1

B1: DOM7r-92-100 (VHH)
VHH: EVQLLESGGGLVQPGGSLRLSCAASGFTFDTSSMLWVRQAPGKGLEWVSVIHQSGTPTYYADSVKGRFTISRDNSKNTLYLQMNSLRAEDTAVYYCAKFPSSRMKFDYWGQGTLVTVSS
notes: VH immunoglobulin single variable domain (dAb, AlbudAb), not a camelid VHH; tested with a myc tag; MALLS: dimer 10%, monomer 90%; also called DOM7r-92-100 myc; not shown: myc tag
Kd (Human serum albumin [1]): 3.56 nM | Kd (Rat serum albumin [2]): 54.3 nM | Kd (Cynomolgus serum albumin [3]): 10.7 nM | Kd (Dog serum albumin): 450 nM | Kd (Mouse serum albumin [4]): 61.5 nM | Kd (Marmoset serum albumin): 7.37 nM | Kd (Mouse serum albumin [5]): 33 nM and 90 nM | Kd (Rabbit serum albumin): 136 nM | Kd (Sheep serum albumin): 569 nM | Kd (Ferret serum albumin): 317 nM | Kd (Pig serum albumin): 191 nM | Kd (Mini Pig serum albumin): 308 nM

B3: DOM7r-92-102 (VHH)
VHH: EVQLLESGGGLVQPGGSLRLSCAASGFTFDTSSMLWVRQAPGKGLEWVSVIHQSGTPTYYADSVKGRFTISRDNSKNTLYLQMNSLRAEDTAVYYCAKFPSSQFRFDYWGQGTLVTVSS
notes: VH immunoglobulin single variable domain (dAb, AlbudAb), not a camelid VHH; tested with a myc tag; not shown: myc tag
Kd (Human serum albumin [6]): 28 nM | Kd (Rat serum albumin [7]): 100 nM | Kd (Cynomolgus serum albumin [8]): 32 nM | Kd (Mouse serum albumin [5]): 280 nM

B5: DOM7r-92-101 (VHH)
VHH: EVQLLESGGGLVQPGGSLRLSCAASGFTFDTSSMLWVRQAPGKGLEWVSVIHQSGTPTYYADSVKGRFTISRDNSKNTLYLQMNSLRAEDTAVYYCAKFPSRKMKFDYRGQGTLVTVSS
notes: as for B3
Kd (Human serum albumin [6]): 15 nM and 8 nM | Kd (Rat serum albumin [7]): 23 nM and 16 nM | Kd (Cynomolgus serum albumin [8]): 120 nM | Kd (Mouse serum albumin [5]): 56 nM

B6: DOM7r-31-14 (VHH)
VHH: EVQLLESGGGLVQPGGSLRLSCTASGFTFRHYRMGWVRQAPGKGLEWVSWIRPDGTFTYYADSVKGRFTISRDNSKNTLYLQMNSLRAEDTAVYYCAKSYMADRFDYWGQGTLVTVSS
notes: VH immunoglobulin single variable domain (dAb, AlbudAb), not a camelid VHH; tested with a myc tag; also called 7r31-14 (Parent); not shown: myc tag
Kd (Mouse serum albumin [5]): 6 nM and 12 nM and 14.2 nM

B10: DOM7r-31-100 (VHH)
VHH: EVQLLEPGGGLVQPGGSLRLSCTASGFTFRHYRMGWVRQAPGKGLEWVSWIRPDGTFTYYADSVKGRFTISRDNSKNTLYLQMNSLRAEDTAVYYCAKSYLSGTFDYWGQGTLVTVSS
notes: as for B3
Kd (Human serum albumin [6]): 260 nM and 287 nM | Kd (Rat serum albumin [7]): 40 nM and 41 nM | Kd (Mouse serum albumin [5]): 5.4 nM and 12.7 nM

Results, then the binder that gave them:

Kd (Human serum albumin [6]): 260 nM and 420 nM
B2: DOM7r-92-4 (VHH)
VHH: EVQLLESGGGLVQPGGSLRLSCAASGFTFDTSSMLWVRQAPGKGLEWVSVIHQSGTPTYYADSVKGRFTISRDNSKNTLYLQMNSLRAEDTAVYYCAKFPSTHGKFDYWGQGTLVTVSS
notes: VH immunoglobulin single variable domain (dAb, AlbudAb), not a camelid VHH; tested with a myc tag; also called 7r92-4 (Parent); not shown: myc tag

Kd (Human serum albumin [6]): 160 nM and 123 nM | Kd (Cynomolgus serum albumin [8]): 770 nM
B4: DOM7r-92-103 (VHH)
VHH: EVQLLESGGGLVQPGGSLRLSCAASGFTFDTSSMLWVRQAPGKGLEWVSVIHQSGTPTYYADSVKGRFTISRDNSKNTLYLQMNSLRAEDTAVYYCAKFPSEGMNFDYWGQGTLVTVSS
notes: as for B3

Kd (Human serum albumin [6]): 367 nM and 240 nM
B7: DOM7r-31-101 (VHH)
VHH: EVQLLESGGGLVQPGGSLRLSCTASGFTFRHYRMGWVRQAPGKGLEWVSWIRPDGTFTYYADSVKGRFTISRDNSKNTLYLQMNSLRAEDTAVYYCAKSYQAGTFDYWGQGTLVTVSS
notes: as for B3

Kd (Human serum albumin [9]): 81 nM | Kd (Human serum albumin [1]): 25.9 nM | Kd (Rat serum albumin [2]): 6.09 nM | Kd (Dog serum albumin): 8.26 nM | Kd (Mouse serum albumin [4]): 59.5 nM | Kd (Marmoset serum albumin): 4900 nM | Kd (Rat serum albumin [7]): 11.9 nM and 7.6 nM | Kd (Guinea Pig serum albumin): 1630 nM | Kd (Rabbit serum albumin): 1990 nM | Kd (Ferret serum albumin): 13.9 nM | Kd (Pig serum albumin): 415 nM | Kd (Mini Pig serum albumin): 412 nM | Kd (Human serum albumin [10]): 89.1 nM
B8: DOM7r-31-104 (VHH)
VHH: EVQLLESGGGLVQPGGSLRLSCTASGFTFRHYRMGWVRQAPGKGLEWVSWIRPDGTFTYYADSVKGRFTISRDNSKNTLYLQMNSLRAEDTAVYYCAKSYMAGTFDYWGQGTLVTVSS
notes: as for B3

Kd (Human serum albumin [6]): 158 nM and 100 nM | Kd (Rat serum albumin [7]): 67 nM and 30 nM
B9: DOM7r-31-102 (VHH)
VHH: EVQLLESGGGLVQPGGSLRLSCTASGFTFRHYRMGWVRQAPGKGLEWVSWIRPDGTFTYYADSVKGRFTISRDNSKNTLYLQMNSLRAEDTAVYYCAKSYHADKFDYWGQGTLVTVSS
notes: as for B3
